1 sequence from PMC9387928 can be followed below.

This data set has as its target T1, ZccR (MerR-type regulator) (Streptococcus mutans UA159) (UniProt Q8DRZ5).
T1 sequence: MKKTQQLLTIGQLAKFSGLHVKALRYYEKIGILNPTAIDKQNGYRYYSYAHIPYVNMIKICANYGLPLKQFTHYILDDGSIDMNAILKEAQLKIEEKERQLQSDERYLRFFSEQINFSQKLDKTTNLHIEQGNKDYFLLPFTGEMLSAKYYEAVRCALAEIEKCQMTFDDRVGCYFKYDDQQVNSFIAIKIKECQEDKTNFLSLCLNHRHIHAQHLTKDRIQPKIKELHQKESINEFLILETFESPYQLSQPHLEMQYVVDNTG
The data set is described as follows: EMSA. To be noted: 10 mM Tris, 50 mM KCl, 1 ug poly dI-dC, 1 mM DTT, 5% glycerol, pH 7.5; 20 fmol probe in 20 ul; 6% native PAGE at 4 C; binding temperature not stated. In general terms: In EMSA bound probe runs differently from free probe, usually more slowly.

Take “CACAAATAGCTTGACCTTCCCTTTAAGGTATAGTTTATAGTTAAACTATAACAAGGTTTGCTAAAAAATGCAATGATTTCTGTATTGGAAAGGAGCCAATCATGTCTAAAGGTGATAAACAAAAGAAAAGGCTTCAAAAAATGACTTGGCTTTCAATATG (double strand) [zccE-zccR intergenic region (IGR), 160 bp]”: the binding result is “binds”.
